# Reference: article PMC5730197, “Evolution-guided adaptation of an adenylation domain substrate specificity to an unusual amino acid” (PLoS ONE, 2017)
# B1: LmbC (Streptomyces lincolnensis) (protein)
# chain: MSSSVRLSTLLASAAEARPEAPAVLGETRLPVTYGELAARAGGIQAALAGLGVRAGDRVALLSGRTDADAVAAVHAILAAGAVYVPLDAASPPARWASVSRVCAPTAVVGERALLDRFAAAVPGPRRLALPSDGDELPAGRLDPVRSDGTDVAYLLTTSGSTGVPKCVAHTGAGAVAFLEWMVGAFPVGGDDVFACHAPLHFDVSVASVLGSALGGAALAPVPRELSGFPVELATWIAERAVTVWLSVPYPLARLSGLEERAARERLATLRTVVFAGDVFPHQRLAALMRCAPGARFLNIYGPTETNGCTYEVVDAPPAGPVPIGRPVECAECWVEDDDGRPVDAVGSVGELVVAGPTVAAGYWGVEGHGAERFRTGETCPGGRAYATGDQVRVLPGGRYAFLGRMDNMIKMRGQRFELEEVENAVRLAPGVEDCCVVKVDVRDDHSRLLAVVVGPGAGDPRTLREHCLTRLPSWAVPHRFLTAAALPLGSTGKVDRRALREELVTRGE
# notes: full-length stand-alone A-domain, C-terminal His8 tag kept, pET42b (plmbC1), E. coli BL21(DE3)
# Legend:
# Assay in all cases: purified protein
# Type in all cases: biochemical, Streptomyces lincolnensis
# Conditions in all cases: amino acid-dependent exchange of 32P from PPi into ATP
# [1] = substrate: CCCCC[C@H]1CN[C@H](C(=O)O)C1
# [2] = substrate: CCCC[C@H]1CN[C@H](C(=O)O)C1
# [3] = substrate: CCC[C@H]1CN[C@H](C(=O)O)C1
# [4] = substrate: CC[C@H]1CN[C@H](C(=O)O)C1
protein,measurement,setting,value
B1,Km,[1],60 ± 3 µM
same,kcat,[1],0.917 ± 0.0133 s⁻¹
same,kcat/Km,[1],15300 M⁻¹ s⁻¹
same,Km,[2],120 ± 6 µM
same,Km,[3],280 ± 30 µM
same,kcat,[3],0.55 ± 0.0167 s⁻¹
same,kcat/Km,[3],2000 M⁻¹ s⁻¹
same,Km,[4],6400 ± 300 µM
